Test results reported in US20230303690A1 (published 2023).

T1: LAG3 Protein, Human, Recombinant (His Tag) (Sino Biological Catalog No. 16498-H08H) (human, UniProt P18627 23-450)
T1 construct: Bought protein; also called hLAG3-His; LAG3-His; not shown: His tag
T1 sequence (looked up): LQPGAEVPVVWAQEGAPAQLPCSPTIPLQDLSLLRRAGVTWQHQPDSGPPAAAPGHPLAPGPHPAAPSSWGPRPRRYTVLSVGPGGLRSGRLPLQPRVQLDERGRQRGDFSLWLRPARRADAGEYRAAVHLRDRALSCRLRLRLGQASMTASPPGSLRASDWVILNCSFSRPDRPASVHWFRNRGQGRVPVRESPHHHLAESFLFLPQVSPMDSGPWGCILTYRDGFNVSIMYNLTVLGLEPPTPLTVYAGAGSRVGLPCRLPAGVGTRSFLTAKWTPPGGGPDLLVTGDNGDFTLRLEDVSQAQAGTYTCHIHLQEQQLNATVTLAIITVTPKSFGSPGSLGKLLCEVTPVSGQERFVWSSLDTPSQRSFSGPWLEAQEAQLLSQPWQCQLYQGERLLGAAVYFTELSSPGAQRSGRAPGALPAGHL


Target: T1, LAG3 Protein, Human, Recombinant (His …)
Assay: ELISA, coated hLAG3-His
Description: Plates were coated with 100 µL per well of Coating Solution, and then covered, and incubated overnight (12-18 hours) at 2-8° C. The wells were aspirated and washed 1 time with >200 µL of Wash buffer per well, inverted and tapped on absorbent paper to remove excess liquid. The plates were blocked with 200 µL per well with Blocking buffer (1×PBS+4% milk) for 1 hour at room temperature, aspirated, inverted, and tapped on absorbent paper to remove excess liquid. Standards and sample dilutions were prepared in Blocking buffer. 100 µL of standards (in duplicate) and samples were pipetted into designated wells. After incubation for 1 hour at room temperature with gentle continual shaking (~500 rpm), the wells were aspirate and washed 3 times with >200 µL of Wash buffer per well, inverted and tapped on absorbent paper to remove excess liquid.
The primary antibody solution was diluted with Blocking buffer. See Table 14 for recommended primary antibody dilution. 100 µL of the primary antibody solution was added into each well and incubated for 2 hours at room temperature with gentle continual shaking (~500 rpm). The wells were aspirated and washed 3 times with >200 µL of Wash buffer per well, inverted and tapped on absorbent paper to remove excess liquid. The working solution of secondary antibody was made with Blocking buffer by diluting the secondary antibody by 2,500 times. 100 µL of secondary antibody working solution was added into each well and incubated for 30 minutes at room temperature. The wells were aspirated and washed 5 times with >200 µL of Wash buffer per well, inverted and tapped on absorbent paper to remove excess liquid. 100 µL of TMB substrate solution (Biopanda, TMB-S-004) was added to each well and incubated for 30 minutes at room temperature. 100 µL of Stop solution (Solarbio, C1058) was added to each well. Absorbance at 450 nm was measured within 30 minutes of adding Stop solution. Results were calculated using a log-log or 4-parameter curve fit.

| Binder | EC50 [nM] | OD450 at 0.061 nM | OD450 at 0.1829 nM | OD450 at 0.5487 nM | OD450 at 1.6461 nM | OD450 at 4.9383 nM | OD450 at 14.815 nM | OD450 at 44.445 nM | OD450 at 133.335 nM |
| --- | --- | --- | --- | --- | --- | --- | --- | --- | --- |
| sdAb No. 25 (VHH, Fc of the tested form not described; also called sdAb 25; sdAb #25; not shown: Fc part implied by anti-human Fc capture and anti-human IgG Fc detection) VHH: QLQLVESGGGLVQAGGSLRLSCAASGSIESFSFMGWYRQAPGKQRELVAGFTGAASLSFSTYTDAVKGRFTISRDNAKNTVYLQMNSLKPEDTAVYFCNVDPWSQSWPGRYWGQGTQVTVSS | 3.45 | 0.037 | 0.042 | 0.06 | 0.233 | 0.643 | 0.85 | 0.882 | 1.02 |
| sdAb No. 27 (VHH, Fc of the tested form not described; also called sdAb 27; not shown: Fc part implied by anti-human Fc capture and anti-human IgG Fc detection) VHH: QVQLVESGGGLVQPGGSLRLSCAASGFTLDYYAIGWFRQAPGKEREGVSCIRSSDGSTYYADSVKGRFTISSDNTKNTVYLQMNSLKPEDTAVYYCATDRYSDCRGPYENWGQGTQVTVSS | 4.7 | 0.037 | 0.042 | 0.059 | 0.257 | 1.04 | 1.57 | 1.77 | 1.95 |
